# In paper PMC9307627, “Targeting loop3 of sclerostin preserves its cardiovascular protective action and promotes bone formation”:
# T1: sclerostin loop1 (human, UniProt Q9BQB4 81-104)
# T1 chain: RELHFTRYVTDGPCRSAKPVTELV
# T2: sclerostin loop3m (human, UniProt Q9BQB4 135-164, R138A;Y139A;R140A;Q142A;R143A;V144A;G151A;E152A;R157A;K158A;V159A)
# T2 chain: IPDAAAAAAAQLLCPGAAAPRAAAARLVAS
# T3: sclerostin loop2 (human, UniProt Q9BQB4 110-133)
# T3 chain: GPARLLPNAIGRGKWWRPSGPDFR
# T4: sclerostin loop3 (WT) (human, UniProt Q9BQB4 135-164)
# T4 chain: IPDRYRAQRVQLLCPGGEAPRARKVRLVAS
# Tests used:
# Assay in all cases: ELONA; ELONA: 160 ng protein coated in PBS; biotinylated aptamer 45 min at RT; wash in PBS pH 7.4, 1 mM MgCl2, 5 mM imidazole, 0.05% Tween 20; streptavidin-HRP/TMB, hyperbolic fit
# [1] = target: full-length human sclerostin (FL hSOST) (human, UniProt Q9BQB4 25-213); conditions: protein: recombinant; tags: His6; label: biotin
# [2] = target: T1, sclerostin loop1; conditions: label: biotin
# [3] = target: T2, sclerostin loop3m; conditions: label: biotin
# [4] = target: T3, sclerostin loop2; conditions: label: biotin
# [5] = target: T4, sclerostin loop3 (WT); conditions: label: biotin
# Sequence of full-length human sclerostin (FL hSOST) (Q9BQB4 25-213): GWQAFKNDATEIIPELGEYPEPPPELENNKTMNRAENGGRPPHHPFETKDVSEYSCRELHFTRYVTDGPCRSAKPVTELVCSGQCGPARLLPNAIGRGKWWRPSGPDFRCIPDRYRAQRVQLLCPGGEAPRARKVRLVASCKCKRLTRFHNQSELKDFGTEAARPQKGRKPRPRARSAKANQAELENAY
Binder,Kd [1] [nM],further results
TGGAAGGGTGGGGGCGGGGGGTCCTCGCCTCGAACGTACG (ssDNA) [aptamer candidate 6],4.2,–
TGGGGGTAGGGGGTCCTTGGCTACGGTGATTCGGATGTGA (ssDNA) [aptamer candidate 51],62.2,–
GGGTGGATTAAGGGGGCCCCGTCTGTAGGCGATTGGCGAA (ssDNA) [aptamer candidate 46],45.6,–
CCCAGACGAGACACCTCATGCTTTTCCCCGGGGGAGGGGTAT (ssDNA) [aptamer candidate 132],42.2,–
CGGGGTGTGGGTTCGTCGTTAGCTTGATTTGGCAGCTGCC (ssDNA) [aptscl56],43.1,binding result [2]: no binding; binding result [3]: binds; binding result [4]: no binding; binding result [5]: binds
CGGGGTGTGGGTAAATCGTTAGAAAGATTAAACAGCTGCC (ssDNA) [aptscl56m],–,binding result [1]: no binding
GAGGGGGCCAACTATGCTTAGTGGGGGGGTTGACCGTATC (ssDNA) [aptamer candidate 15],4,–
TGGGGGTAGGGGGACCCTGGCTAGTTAGTCACCGTTTCGA (ssDNA) [aptamer candidate 9],3.4,–
